Data reported in article doi:10.1101/2025.08.03.668247, “The structure of Egalitarian in complex with the K10 mRNA localization signal reveals a modular binding surface required for function”.
Numbering of substitutions follows the chain as printed.

Columns and labels:
Test in all cases: fluorescence anisotropy; FA: 20 mM HEPES-NaOH pH 7.5, 100 mM NaCl, 10% glycerol, 20 C, 10 nM FAM-RNA; competition: 150 nM Egl512-819 + 10 nM FAM-K10 TLS, same buffer
K678A = biological target: T1, K678A (Drosophila melanogaster, UniProt Q9W1K4 512-819, K678A); details: protein: recombinant; tags: N-terminal GST; label: 5'-6-FAM; hairpin with two bulges
T1 sequence: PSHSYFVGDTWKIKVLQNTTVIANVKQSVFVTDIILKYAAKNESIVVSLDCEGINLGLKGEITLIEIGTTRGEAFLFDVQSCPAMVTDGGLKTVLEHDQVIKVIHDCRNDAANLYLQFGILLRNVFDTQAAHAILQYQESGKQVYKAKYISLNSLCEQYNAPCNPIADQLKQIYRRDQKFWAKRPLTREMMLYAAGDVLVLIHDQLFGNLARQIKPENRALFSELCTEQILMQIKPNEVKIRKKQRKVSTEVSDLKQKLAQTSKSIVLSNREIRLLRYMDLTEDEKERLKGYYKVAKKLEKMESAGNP

R785E = biological target: T2, R785E (Drosophila melanogaster, UniProt Q9W1K4 512-819, R785E); details: protein: recombinant; tags: N-terminal GST; label: 5'-6-FAM; hairpin with two bulges
T2 sequence: T1 sequence with A167K, R274E

R753A/K754A/K755A = biological target: T3, R753A/K754A/K755A (Drosophila melanogaster, UniProt Q9W1K4 512-819, R753A;K754A;K755A); details: protein: recombinant; tags: N-terminal GST; label: 5'-6-FAM; hairpin with two bulges
T3 sequence: T1 sequence with A167K, R242A, K243A, K244A

GST-Egl512-819 = biological target: T4, GST-Egl512-819 (Drosophila melanogaster, UniProt Q9W1K4 512-819); details: protein: recombinant; tags: N-terminal GST (TEV site); label: 5'-6-FAM; hairpin with two bulges
T4 sequence: T1 sequence with A167K

R782E = biological target: T5, R782E (Drosophila melanogaster, UniProt Q9W1K4 512-819, R782E); details: protein: recombinant; tags: N-terminal GST; label: 5'-6-FAM; hairpin with two bulges
T5 sequence: T1 sequence with A167K, R271E

EXO-L (Egl512-770) = biological target: T6, EXO-L (Egl512-770) (Drosophila melanogaster, UniProt Q9W1K4 512-770); details: protein: recombinant; tags: N-terminal GST; label: 5'-6-FAM; hairpin with two bulges
T6 sequence: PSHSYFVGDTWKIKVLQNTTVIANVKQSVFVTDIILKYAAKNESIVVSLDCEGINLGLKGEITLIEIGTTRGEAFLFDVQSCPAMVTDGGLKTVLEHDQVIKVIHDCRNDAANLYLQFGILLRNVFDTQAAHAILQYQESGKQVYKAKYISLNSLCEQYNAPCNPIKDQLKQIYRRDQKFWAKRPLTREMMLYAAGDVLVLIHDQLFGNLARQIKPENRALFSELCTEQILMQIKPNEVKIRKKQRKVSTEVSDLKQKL

Question: For CUUGAUUGUAUUUUUAAAUUAAUUCUUAAAAACUACAAAUUAAG (structured_RNA) [K10 TLS (FAM)], which Kd (K678A) is on record?
Answer: The Kd was 295 ± 8 nM.

Question: What about the Kd (R785E) of the same binder?
Answer: Its Kd is 210 ± 5 nM.

Question: What about the Kd (R753A/K754A/K755A) of the same binder?
Answer: The Kd was 222 ± 19 nM.

Question: What about the Kd (GST-Egl512-819) of the same binder?
Answer: Its Kd is 130 ± 6 nM.

Question: And the Kd (R782E)?
Answer: Its Kd is 235 ± 30 nM.

Question: And the Kd (EXO-L (Egl512-770))?
Answer: The Kd was 807 ± 104 nM.
